Publication PMC2173848

Target: GST-Ypt1p (S. cerevisiae) (UniProt P01123)
Test: pull-down

GST-Ypt1p (S. cerevisiae), sequence (P01123 whole entry): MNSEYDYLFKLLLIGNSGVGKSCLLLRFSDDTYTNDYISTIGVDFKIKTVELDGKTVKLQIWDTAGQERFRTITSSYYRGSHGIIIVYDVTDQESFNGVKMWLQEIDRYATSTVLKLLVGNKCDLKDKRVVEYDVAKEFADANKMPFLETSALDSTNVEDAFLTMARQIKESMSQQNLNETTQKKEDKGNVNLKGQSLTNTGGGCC

fold less binding than with GTP-loaded GST-Ypt1p: > 5 fold | percent of the complex bound: > 50%
Substance: purified Sec34/35 complex, P40094 1-801; P53271 1-262; Q06096 1-861; P53079 1-417; P53959 1-839
